Results from the supplement of paper PMC10567573.

B1: PDZK1 (parent)
chain: RETASLKLLPHQPRIVEMKKGSNG
B2: ZBED3 (parent)
chain: QARLRDVSRREGALGWAPAAPPPL
B3: SMG5 (parent)
chain: TRKLSPGKKRCKDIKRLLVNFMYL

Variants of: B1
Assay: protein stability index of a GFP-peptide fusion (GPS, HEK-293T) (PSI 1-6); higher = more stable
Settings: c terminus: a fixed tail appended
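Also: lentivirally expressed fusions sorted by FACS into six bins by GFP to DsRed ratio, PSI derived from sequencing read proportions per bin multiplied by bin number.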

Protein stability index: each site, then its substitutions
S22: E 4.54, L 3.03, M 3.85, Y 2.61, P 3.33, K 4.03, D 4.55, F 2.47, Q 3.88, I 3.38, C 3.25, N 4.09, G 4.28, V 4, T 3.51
K19: V 2.39, W 3.14, D 4.35, A 3.55, I 2.77, C 2.29, T 2.61, E 3.94, P 4.52, N 3.28, R 2.63, H 2.65, Y 2.2, S 3.49, G 4.83, L 2.79
M18: T 4.85, R 4.93, A 4.51, K 4.56, P 4.58, I 4.21, E 5.25, Q 4.58, F 4, W 3.53, C 4.33, Y 3.91, H 4.44, D 5.3, S 4.79, L 4.15, V 3.86
K20: V 3.7, Q 4.06, I 3.41, N 4.28, P 3.99, C 3.65, F 3, E 4.87, G 4.14, M 3.57, L 3.61, Y 3.62, A 3.46, H 4.4, T 3.51, W 2.48
I15: W 2.79, L 4.16, D 4.66, C 4.3, S 4.69, P 4.39, K 4.75, A 4.78, F 3.44, V 3.51, N 4.99, T 4.49, M 3.89, Y 4.01, G 5.16, Q 4.72, E 5.02, R 4.51
Q12: W 3.2, R 3.65, S 4.05, T 3.26, V 3.09, P 4.03, N 3.84
N23: P 4.22, G 3.62, T 3.52, A 3.62, K 4.18, D 4.24, M 3.24, Q 4.32, Y 3.3, S 3.14, W 3.12, R 4.48, L 3.11, C 3.25, V 3.72, I 3.24, E 4.45
G24: T 4.41, F 3.05, S 3.99, Y 3.56, W 3.88, H 4.17, P 4.01, R 4.03, C 4.01, V 4.15, D 5, M 4.17, A 4.52, L 3.53, Q 4.58, N 4.49, K 4.76, E 4.82
V16: N 4.88, W 3.57, I 3.9, A 4.42, H 4.35, M 4.17, Y 3.68, T 4.67, S 3.92, Q 4.51, G 4.85, P 4.63, F 4.05, E 4.53, D 4.18, L 3.87
R14: S 3.87, M 2.93, W 3.3, K 3.38, C 3.63, T 4.22, H 3.7, G 4.05, A 4.25, N 4.13, Y 3.34, E 4.07, I 3.86, D 4.61
E17: S 3.67, L 2.66, T 3.86, Y 2.51, N 4.28, K 3.82, P 2.97, I 2.42, V 3.21, D 4.08, R 4.02, W 2.7, F 2.81, G 3.48, H 3.67, Q 2.92, C 3.17
P13: L 4.35, R 3.77, C 2.35, S 3.92, H 3.73, T 3.99, V 4.14, W 3.25, D 4.22, I 3.29, Q 4.81, K 4.07, A 4.09, G 4.14, Y 3.4, M 3.88, E 4.4, N 3.67, F 3.63
G21: Y 2.13, K 3.74, I 3.23, V 3.56, S 3.37, C 2.58, R 3.9, P 3.77, A 2.67, M 2.22, Q 2.92, F 2.64, E 4.29, T 2.25, L 1.83, N 3.43, W 2.6, D 4.48

Variants of: B2
Assay: as above
Settings: c terminus: a fixed tail appended

Protein stability index, by site and new letter:
A20: W 1.96
P23: R 3.33, A 3.38, G 3.73, N 3.18, W 2.08, Y 2.06, F 2.79, L 2.9, S 3.63, E 3.12, K 3.33, I 2.36, Q 3.5, M 2.86, V 2.79, D 3.81, C 3.19
P18: E 3.56
P22: T 3.11, G 3.34, E 4.2, R 3.31, M 3.16, K 3.62, F 2.89, L 3.46, H 3.45, S 3.2, A 3.65, Q 3.29, Y 2.37, N 3.26, D 3.81, C 2.29, I 2.74, V 2.46, W 2.62
P21: G 3.02, W 2.12, K 3.55, N 2.84, F 2.48, Y 2.02, D 3.96, R 3.49, I 2.84, C 2.31, Q 3.22, E 3.87, S 3.5, L 2.67, A 3.1, V 3.27, M 3.2

Variants of: B3
Assay: as above
Settings: c terminus: a fixed tail appended

Protein stability index of substitutions, site by site:
P6: G 2.69, L 2.45, S 2.1, D 2.55, T 2.59, V 3.45, H 2.4, Q 3.24, N 1.9
R2: S 2.78, H 1.38, C 2.19, F 3.38, I 3.09, E 1.04, P 2.76, V 2.98, Y 4.16, M 3, T 2.24, A 2.29, N 1.94, Q 1.59
T1: G 1.92, Q 2.7, V 3.92, E 2.17, I 1.95, H 3.62, A 1.51, C 2.22, M 2.88, R 4.28, S 3.96, W 1.45
L4: C 2.54, I 3.12, Q 2.06, P 2.58, G 1.36, H 2.64, T 1.62, R 1.15, S 1.47, D 1.33, N 1.22, Y 2.63, A 1.76, K 2.07
S5: F 4.07, T 1.02, L 1.55, K 4.05, Q 2.62, G 2.7, D 2.41, P 2.54
K3: L 1.85, C 2.31, M 2.94, W 1.86, T 1.66, E 2.41, N 2.16, F 2.44, I 2.34, S 1.59, P 2.52, G 3.74, A 2.18, V 3.52
